The results in this text go back to patent US20060003399A1, “High throughput actin polymerization assay” (Cytokinetics, Inc., priority 2004, published 2006).

Holding throughout (test): cell-based or functional assay
The target in test [1] is Arp2/3 complex (human) (UniProt P61158).
Test [2] addresses Actin (G-actin with pyrene-actin) (chicken).
For test [3], the target named is Full length human N-WASP, TAP-tagged at the C-terminus (Myc-N-WASP-TAP) (human).
Test [4] has as its target Full length human WASP, TAP-tagged at the C-terminus (Myc-WASP-TAP) (human).

In test [1], “Full length human WASP, TAP-tagged at the C-terminus (Myc-WASP-TAP)” yielded an activity relative to 105 WASP (fold against 105 WASP) of 20; a concentration giving maximal concentration of barbed ends (500 nM Cdc42, 2.5 nM Arp2/3, 3.5 uM actin) of 3 nM; a potency relative to the VCA/WA domain (fold against VCA/WA domain) above 70.
In test [2], “GST tagged C. albicans FH1-FH2 domain (from UniProt Q5AL52 972-1598)” had a lag phase of actin polymerization at 100 nM formin below 100 s and a time to saturation phase of actin polymerization at 100 nM formin of 400 s.
With GST-Nck2, in test [3], the Barbed ends worked out at 3.5 nM, the Barbed ends % of max. was determined as 78% and the EC50 stood at 7 nM. Besides, in test [4], the Barbed ends amounted to 2.6 nM, the Barbed ends % of max. was found to be 50% and the concentration giving a half-maximal response (EC50) turned out to be 12 nM.
For the substance GST-tev-Cdc42 (enzyme), the EC50 in test [3] came to 287 nM; in test [4] it was 16 nM.
“His6 tagged C. albicans FH1-FH2 domain (from UniProt Q5AL52 972-1598)”: the formin concentration to observe saturation of actin polymerization in test [2] was 300 to 500 nM.
